# Laboratory results as given in PMC13397619.
# B1: NLV3 TCR beta chain (CDR3β only) (parent)
# chain: ASSPTGGSPSPLH
# partner: NLCPMVATV
# Variants of: B1
# Test: T-Switch: Jurkat TCRβ−/− cells expressing a CDR3 saturation-mutagenesis library, stained with two peptide-HLA-A*02:01 tetramers (original and novel peptide) plus anti-CD3, FACS-sorted into four gates, gDNA sequenced
# Conditions: with HLA-A*02:01 with peptide … (NLV 2-1, the novel peptide), tetramers 1 µg/mL, 30 min on ice, SP, DP and SW gates expanded about 10 days between rounds ('two to three rounds of selection' in the Methods), gate SW: higher = more of the variant in the gate that binds the novel peptide and not the original one = switched binding. Fold enrichment of the CDR3 variant in one FACS gate of a two-tetramer stain, unresolved parent, parent is a CDR3 fragment, scale: fold enrichment, numbering: sequential-on-construct, sequence starts at 1
row,Variant,enrichment
1,[…] (CDR3 as printed); H13Q derived by comparing it with the table's wild-type CDR3 ASSPTGGSPSPLH,0
2,[…] (CDR3 as printed); H13R derived by comparing it with the table's wild-type CDR3 ASSPTGGSPSPLH,0
3,[…] (CDR3 as printed); H13S derived by comparing it with the table's wild-type CDR3 ASSPTGGSPSPLH,0
4,[…] (CDR3 as printed); H13T derived by comparing it with the table's wild-type CDR3 ASSPTGGSPSPLH,0
5,[…] (CDR3 as printed); H13V derived by comparing it with the table's wild-type CDR3 ASSPTGGSPSPLH,0
6,[…] (CDR3 as printed); H13W derived by comparing it with the table's wild-type CDR3 ASSPTGGSPSPLH,0
7,[…] (CDR3 as printed); H13Y derived by comparing it with the table's wild-type CDR3 ASSPTGGSPSPLH,0
8,[…] (CDR3 as printed); L12A derived by comparing it with the table's wild-type CDR3 ASSPTGGSPSPLH,0
9,[…] (CDR3 as printed); L12C derived by comparing it with the table's wild-type CDR3 ASSPTGGSPSPLH,0
10,[…] (CDR3 as printed); L12D derived by comparing it with the table's wild-type CDR3 ASSPTGGSPSPLH,0
11,[…] (CDR3 as printed); L12E derived by comparing it with the table's wild-type CDR3 ASSPTGGSPSPLH,0
12,[…] (CDR3 as printed); L12F derived by comparing it with the table's wild-type CDR3 ASSPTGGSPSPLH,0
13,[…] (CDR3 as printed); L12G derived by comparing it with the table's wild-type CDR3 ASSPTGGSPSPLH,0
14,[…] (CDR3 as printed); L12H derived by comparing it with the table's wild-type CDR3 ASSPTGGSPSPLH,0
15,[…] (CDR3 as printed); L12I derived by comparing it with the table's wild-type CDR3 ASSPTGGSPSPLH,0
16,[…] (CDR3 as printed); L12K derived by comparing it with the table's wild-type CDR3 ASSPTGGSPSPLH,0
17,[…] (CDR3 as printed); L12M derived by comparing it with the table's wild-type CDR3 ASSPTGGSPSPLH,0
18,[…] (CDR3 as printed); L12N derived by comparing it with the table's wild-type CDR3 ASSPTGGSPSPLH,0
19,[…] (CDR3 as printed); L12P derived by comparing it with the table's wild-type CDR3 ASSPTGGSPSPLH,0
20,[…] (CDR3 as printed); L12Q derived by comparing it with the table's wild-type CDR3 ASSPTGGSPSPLH,0
21,[…] (CDR3 as printed); L12R derived by comparing it with the table's wild-type CDR3 ASSPTGGSPSPLH,0
22,[…] (CDR3 as printed); L12S derived by comparing it with the table's wild-type CDR3 ASSPTGGSPSPLH,0

row,Variant,enrichment
1,[…] (CDR3 as printed); L12V derived by comparing it with the table's wild-type CDR3 ASSPTGGSPSPLH,0
2,[…] (CDR3 as printed); L12Y derived by comparing it with the table's wild-type CDR3 ASSPTGGSPSPLH,0
3,[…] (CDR3 as printed); P4A derived by comparing it with the table's wild-type CDR3 ASSPTGGSPSPLH,0
4,[…] (CDR3 as printed); P4C derived by comparing it with the table's wild-type CDR3 ASSPTGGSPSPLH,0
5,[…] (CDR3 as printed); P4D derived by comparing it with the table's wild-type CDR3 ASSPTGGSPSPLH,0
6,[…] (CDR3 as printed); P4E derived by comparing it with the table's wild-type CDR3 ASSPTGGSPSPLH,0
7,[…] (CDR3 as printed); P4F derived by comparing it with the table's wild-type CDR3 ASSPTGGSPSPLH,0
8,[…] (CDR3 as printed); P4G derived by comparing it with the table's wild-type CDR3 ASSPTGGSPSPLH,0
9,[…] (CDR3 as printed); P4H derived by comparing it with the table's wild-type CDR3 ASSPTGGSPSPLH,0
10,[…] (CDR3 as printed); P4I derived by comparing it with the table's wild-type CDR3 ASSPTGGSPSPLH,0
11,[…] (CDR3 as printed); P4K derived by comparing it with the table's wild-type CDR3 ASSPTGGSPSPLH,0
12,[…] (CDR3 as printed); P4L derived by comparing it with the table's wild-type CDR3 ASSPTGGSPSPLH,0
13,[…] (CDR3 as printed); P4M derived by comparing it with the table's wild-type CDR3 ASSPTGGSPSPLH,0
14,[…] (CDR3 as printed); P4N derived by comparing it with the table's wild-type CDR3 ASSPTGGSPSPLH,0
15,[…] (CDR3 as printed); P4Q derived by comparing it with the table's wild-type CDR3 ASSPTGGSPSPLH,0
16,[…] (CDR3 as printed); P4R derived by comparing it with the table's wild-type CDR3 ASSPTGGSPSPLH,0
17,[…] (CDR3 as printed); P4S derived by comparing it with the table's wild-type CDR3 ASSPTGGSPSPLH,0
18,[…] (CDR3 as printed); P4W derived by comparing it with the table's wild-type CDR3 ASSPTGGSPSPLH,0
19,[…] (CDR3 as printed); P4Y derived by comparing it with the table's wild-type CDR3 ASSPTGGSPSPLH,0
20,[…] (CDR3 as printed); P9A derived by comparing it with the table's wild-type CDR3 ASSPTGGSPSPLH,0
21,[…] (CDR3 as printed); P9C derived by comparing it with the table's wild-type CDR3 ASSPTGGSPSPLH,0
22,[…] (CDR3 as printed); P9D derived by comparing it with the table's wild-type CDR3 ASSPTGGSPSPLH,0

row,Variant,enrichment
1,[…] (CDR3 as printed); P9E derived by comparing it with the table's wild-type CDR3 ASSPTGGSPSPLH,0
2,[…] (CDR3 as printed); P9F derived by comparing it with the table's wild-type CDR3 ASSPTGGSPSPLH,0
3,[…] (CDR3 as printed); P9G derived by comparing it with the table's wild-type CDR3 ASSPTGGSPSPLH,0
4,[…] (CDR3 as printed); P9H derived by comparing it with the table's wild-type CDR3 ASSPTGGSPSPLH,0
5,[…] (CDR3 as printed); P9I derived by comparing it with the table's wild-type CDR3 ASSPTGGSPSPLH,0
6,[…] (CDR3 as printed); P9K derived by comparing it with the table's wild-type CDR3 ASSPTGGSPSPLH,0
7,[…] (CDR3 as printed); P9L derived by comparing it with the table's wild-type CDR3 ASSPTGGSPSPLH,0
8,[…] (CDR3 as printed); P9M derived by comparing it with the table's wild-type CDR3 ASSPTGGSPSPLH,0
9,[…] (CDR3 as printed); P9N derived by comparing it with the table's wild-type CDR3 ASSPTGGSPSPLH,0
10,[…] (CDR3 as printed); P9Q derived by comparing it with the table's wild-type CDR3 ASSPTGGSPSPLH,0
11,[…] (CDR3 as printed); P9R derived by comparing it with the table's wild-type CDR3 ASSPTGGSPSPLH,0
12,[…] (CDR3 as printed); P9S derived by comparing it with the table's wild-type CDR3 ASSPTGGSPSPLH,0
13,[…] (CDR3 as printed); P9T derived by comparing it with the table's wild-type CDR3 ASSPTGGSPSPLH,0
14,[…] (CDR3 as printed); P9V derived by comparing it with the table's wild-type CDR3 ASSPTGGSPSPLH,0
15,[…] (CDR3 as printed); P9W derived by comparing it with the table's wild-type CDR3 ASSPTGGSPSPLH,0
16,[…] (CDR3 as printed); P9Y derived by comparing it with the table's wild-type CDR3 ASSPTGGSPSPLH,0
17,[…] (CDR3 as printed); P11A derived by comparing it with the table's wild-type CDR3 ASSPTGGSPSPLH,0
18,[…] (CDR3 as printed); P11C derived by comparing it with the table's wild-type CDR3 ASSPTGGSPSPLH,0
19,[…] (CDR3 as printed); P11D derived by comparing it with the table's wild-type CDR3 ASSPTGGSPSPLH,0
20,[…] (CDR3 as printed); P11E derived by comparing it with the table's wild-type CDR3 ASSPTGGSPSPLH,0
21,[…] (CDR3 as printed); P11F derived by comparing it with the table's wild-type CDR3 ASSPTGGSPSPLH,0
22,[…] (CDR3 as printed); P11G derived by comparing it with the table's wild-type CDR3 ASSPTGGSPSPLH,0

row,Variant,enrichment
1,[…] (CDR3 as printed); P11H derived by comparing it with the table's wild-type CDR3 ASSPTGGSPSPLH,0
2,[…] (CDR3 as printed); P11I derived by comparing it with the table's wild-type CDR3 ASSPTGGSPSPLH,0
3,[…] (CDR3 as printed); P11K derived by comparing it with the table's wild-type CDR3 ASSPTGGSPSPLH,0
4,[…] (CDR3 as printed); P11L derived by comparing it with the table's wild-type CDR3 ASSPTGGSPSPLH,0
5,[…] (CDR3 as printed); P11M derived by comparing it with the table's wild-type CDR3 ASSPTGGSPSPLH,0
6,[…] (CDR3 as printed); P11N derived by comparing it with the table's wild-type CDR3 ASSPTGGSPSPLH,0
7,[…] (CDR3 as printed); P11Q derived by comparing it with the table's wild-type CDR3 ASSPTGGSPSPLH,0
8,[…] (CDR3 as printed); P11R derived by comparing it with the table's wild-type CDR3 ASSPTGGSPSPLH,0
9,[…] (CDR3 as printed); P11S derived by comparing it with the table's wild-type CDR3 ASSPTGGSPSPLH,0
10,[…] (CDR3 as printed); P11T derived by comparing it with the table's wild-type CDR3 ASSPTGGSPSPLH,0
11,[…] (CDR3 as printed); P11V derived by comparing it with the table's wild-type CDR3 ASSPTGGSPSPLH,0
12,[…] (CDR3 as printed); P11W derived by comparing it with the table's wild-type CDR3 ASSPTGGSPSPLH,0
13,[…] (CDR3 as printed); P11Y derived by comparing it with the table's wild-type CDR3 ASSPTGGSPSPLH,0
14,[…] (CDR3 as printed); S2A derived by comparing it with the table's wild-type CDR3 ASSPTGGSPSPLH,0
15,[…] (CDR3 as printed); S2C derived by comparing it with the table's wild-type CDR3 ASSPTGGSPSPLH,0
16,[…] (CDR3 as printed); S2E derived by comparing it with the table's wild-type CDR3 ASSPTGGSPSPLH,0
17,[…] (CDR3 as printed); S2F derived by comparing it with the table's wild-type CDR3 ASSPTGGSPSPLH,0
18,[…] (CDR3 as printed); S2G derived by comparing it with the table's wild-type CDR3 ASSPTGGSPSPLH,0
19,[…] (CDR3 as printed); S2H derived by comparing it with the table's wild-type CDR3 ASSPTGGSPSPLH,0
20,[…] (CDR3 as printed); S2I derived by comparing it with the table's wild-type CDR3 ASSPTGGSPSPLH,0
